# From the nanobody polyreactivity screen of Harvey et al. (2022)
# Assay: yeast display, Sf9 membrane polyspecificity reagent, FACS + sequencing; frameworks hold sequencing errors
# Outline: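 Polyreactivity labels are assigned by the sorting gate from which each nanobody was recovered. The gates were low and high (top ~1%), set on anti-HA fluorescence for expression and streptavidin fluorescence for reagent binding. Before sorting, galactose-induced (36–48 hours) yeast display cells were stained for 1 hour at 4 °C with 10% biotinylated, detergent-solubilized Sf9 membrane reagent.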
row,Sequence,polyreactivity (PSR sort gate)
1,QVQLVESGGGLVQAGGSLRLSCAASGYTFASYTMGWYRQAPGKERELVATISRGGGRTYYADSVKGRFTISRDNAKNTVYLQMNSLKPEDTAVYYCARPSTFYTGYRQAHFDYWGQGTQVTVSS,high polyreactivity
2,QVQLVESGGCLVQAGGSLRLSCAASGRTFGFYAMGWYRQAPGKERELVAGITQSGGSTYYADSVKGRFTISRDNAKNTVYLQMNSLKTEDTAVYYCATDYQQLDDYWGQGTQVTVSS,low polyreactivity
3,QVQLVESGGGLVQAGGSLRLSCAASGRTSVIYAMGWYGPAPGKERELVASIRRGCSTSYADSVKGRFTISRDNAKNTVYLQMNSLKPEDTAVFYCAALLYGYYHVWRNYYWGQGTQVTVSS,high polyreactivity
4,QVQLVESGGGLVQAGGSLRLSCAASGSTFYSYAMGWYRQAPGKERELVAAISWSGGSTYYADSVKGRFTISRDNAKNTVYLQMNSLKPEDTAVYYCAATRTRGYDGYGMYYWGQGTQVTVSS,high polyreactivity
5,QVQLVESGGGLVQAGGSLRLSCAASGRTFDYYAMGWYRPAPGKERELVAAIRTSGGSTNYADSVKGRFTISRDNAQNTVYLLMNSLKPEDTAVYYCAARDRPGAYYYGGQGTQVTVSS,high polyreactivity
6,QVQLVESGGGLVQAGGSLRLSSSASGGIFRSYAMGWYRQAPGKERELVATITDRGGSTYYADSVKGRFTISRDNAKNTVYLQMNSLKPEDTAVYYCAAELVNRLWYRVVHFDYWGQGPQVTVSS,low polyreactivity
7,QVQLVESGGGLVQAGGSLRLSSGASGLTIRRYAMGWSRQAPGKEREFVATISQNGGRTYYADSVKGRFTISRDNAKNTFYLQMNSLKPEDTAVYYCAAEDWRWGYDYWGQGTQVTVSS,high polyreactivity
8,QVQLVESGGGLVQAGGSLRLSCAASGNIFIYNAMGWYRQAPGKERELVAAISVSGGDTYYADSVKGRFTISRDNAKNTVYLQMNSLKPEDTAVYYCAAEAEYIELDYWGQGTQVTVSS,low polyreactivity
9,QVQLVESGGGLVQAGGSLRLSCAASGSIVPFYAMGWDRQAPGKERELVATISSGDSTHYADSVKGRFTISRDNAKNTVYLQMNSLKPEDTAVYYCNRRNKAQRFFELGYWGQGTQVTVSS,low polyreactivity
10,QVQLQESCGGLVQAGGSLRLSCAASGTIFRFRYMAWHRQAPGKERELVAGINGGTTTYYADSVIGLFTISRDNAKNTVYLQMNSLKPDDTAVYNCAAGASRLTYYDYWGQGTQVTVIS,low polyreactivity
11,QVQLVESVGGLVQAGGSLRLSCAASGRIFPWYAKGWYRQAPGKERELVAAIRWRGGGTYYADSVKGRFTISRDNAKNTVYLQMNSLKPEDTAVYYCAARRPAKGMGYWGQGTQVTVSS,high polyreactivity
12,QVQLVESGGGLVQAGGSLRLSCAASGSIFRRYALGWYRQAPGKERELVAAISYSGGSTYYADSVKGRFTISRDNAKNTVYLQMNSLKPEDTAVYYCAVVTRKGLYDYWGQGTQVTGSS,high polyreactivity
13,QVQLVESGGGLVQAGGSLRLSCAASGSTFYSYTMGWYRQAPGKERELVASITRGGSTYYADSVKGRFTISRDNAKNTVYLQLNSLKPEDTAVYYCAARGRYSIARYDYWGQGTQVTVSS,high polyreactivity
14,QVQLVESGGGLVQAGGSLRLSCAASGSTFSFNDMGWYRQAPGKERELVADISWSGDTTYADSVKGRFTISRDNAKNTVYLQMNSLKPEDTAVYYCNAEGFSIAFYANWVVQWEFDFWGQGTQVSVSS,high polyreactivity
15,QVQLEESGGGLVQAGGSLRLCCAASGFTFDYNAKGWYRQPPGKLRDLVAVISSSGSRTYYADSVKGRFTISRDYAKNTVYLQMNSLKPEDSAVYYWAGARIGTSDYWGQGTQVTESS,high polyreactivity
16,QVQLVESGGGLVQAGGSLRLSCAASGNTFYVNAMGWYRQAPGKERELVATISKRGSSTYYADSVKGRFTISRDNAKNTVFLQMNSLKPEDTAVYYCNAEGPSYYYIIYDYWGQGTQVTVSS,high polyreactivity
17,QVQLVESGGGLVQAGGSLRLSCAASGFTFGYYTMGWYRQAPGKERELVAAISWSGGSTYYADSVKGRFTISRDNAKNTVYLQMNSLKPEDTAVYYCAAYRYGYDYWGQGTQVTVSS,high polyreactivity
18,QVQLVESGGGLVQAGGSLRLSCAASGFIFPGYAMGWYRQAPGKERELVAVISGSGARTYYADSVKGRFTISRDNAKNTVYLQMNSLKPEDTAVYYCATDYCRTRQYRPGDYWGQGTQVTVSS,high polyreactivity
19,RVQLVESGGGLVQAGGSLRLSCAASGSTFLVYAMGWYRQAPGKERELVAVIRWRDGSTYYADSVKGRFTISRDNAKNTVYLQLNSLKPEDTAVYYCAAVYWGEEYEYWGQGTQVTVSS,low polyreactivity
20,KVQLVESGGGLVQAGGSLRLSCAASGLTFSYYAMGWYRQAPGKERELVAAITRSGTRTYYADSVKGRFTISRDNAKNTVYLQMNSLKPEDTAVYYCARYLRGDFQQGEHWGQGTQVTVSS,high polyreactivity
21,QVQLVESGGGLVQAGGSLRLSCAASGSIFRFNAMGWYRQAAGKERELVAAISVRGSRTYYADSVKGRFTSSSDNAKNTVYLQMNSLKPEDTAVYYCNAEALTYSSRYDYWGQGTQVTVSS,low polyreactivity
22,QVQLVESGGGLVQAGGSLRLSCAPSGSIFIRNAMGWYRQAPGKERELVAAISGSGSSTYYADSVKGRFTISRDNAKNTVYLQMNSLKPEDTAVYYCNTDRTHSYQYGGYDYWGQGTQVTVSS,low polyreactivity
23,QVQLVESGGGLVQAGGSLRLSCAASGSIFTGYAMGWYRQAPGKERELVAAITYGSGRTYYADSVKGRFTISRDNAKNTLYLQMNSLKPEDTAVYYCAAKWSPYYYYIGYDYWGQGTQVTVSS,low polyreactivity
24,QGQLVESGGGLVQAGGSLRLSCAASGRIFYQNDMGWYIQAPGKERELVADIASGGSTYYADSVKGRFTISRDNAKNTVYLQMNSLKPEDTAVYYCASAVLYGDGWYYYWGQGTQVTVSS,low polyreactivity
25,QDHIVESGGGLVQAGGSLRLSCAASGSTFKLYAMGWYRQAPGKERELVAAITRSGTRTYYADSVKGRFTISRDNAKNTVYLQMNILKPEDTAVYYCAADGYRISGYDYWGQGTQVTVSS,high polyreactivity
26,QVQLVESGGGLVQAGGSLSLSCAASGRNFYANTMGWYRQAPGKERELVASISYSSGSTYADSVKGRFTISRDNAKNTVYLQMNSLKPEDTAVYYCAARTYWYPRRPIYDYWGQGTQVTVSS,high polyreactivity
27,QVQLVESGGGLVQAGGSLRLICAASGRTFYGYAMGWYRQAPGKERELVAAISTGGGRTYYADSVKGRFTISRDNAKNTVYLQMNSLKPEDTAVYYCAARRAYPHYRVDYWGPGTQVTVSS,high polyreactivity
28,QVQLVESGGGLVQAGGSLRLSCSASGFIFFRYSMGWYIQAPGKERELVAAINSSGDSTYADSVKGRFTISRDNAKNTFYLQMNSLKPEDTAVYYCATGGRTEIWYPTLDYWGQGTQVTVSS,low polyreactivity
29,QVQLVESGGGLVQAGGSLRLSCAASGITFWNNAKGWYRQAPGKEREFVATISSNGGRTYYADSVKGRFTISRDNAKNTVYLQMNSLKPEDNAVYYCNAARRAYGYNYWGQGTQVTVSS,low polyreactivity
30,QVQLQESGGGLVQAGGSLRQSCAASGYIFQPFYMGWYRQAPGKERELVAGISVGGNTYYADSVKGRFTISRDNAKNSVFLQMNSLKPEDTAVYYCAVQFVLQDKYVYWGQGTQVTVSS,low polyreactivity
